Holding throughout (assay type): cell-based
Experiment [1] concerns mouse eggs. Description: Binding of SLLP2 to mouse eggs. Here is the method: To analyze the biologic activity of human SLLP2, it was determined whether it would bind to an egg, in this case, a mouse egg.
(§1) For comparison to the use of human sperm SLLP2, an experiment was performed to determine if purified mouse SLLP2 would bind to Zona intact mouse eggs. […] Competitive assays were then performed to determine whether the addition of recombinant mouse SLLP2 to a mixture of mouse sperm and mouse eggs could inhibit binding of sperm and eggs. Various amounts of recombinant mouse SLLP2 were added (5, 25, 50, 100, and 200 μg/ml) and the number of sperm bound per egg was determined.

The test system of experiment [2] is mouse sperm and mouse eggs. Description: Competitive assay of sperm-egg binding with recombinant mouse SLLP2. As to conditions: 5, 25, 50, 100 and 200 μg/ml, relative to BSA (200 μg/ml) or PBS controls. The method, then: as §1
A further experiment relates to mouse sperm-egg fusion. Description: Mouse sperm-egg fusion with recombinant mouse SLLP2. As to conditions: 100 or 200 μg/ml, relative to BSA and PBS controls. Here is the method: Next, it was determined whether recombinant mouse SLLP2 could inhibit mouse sperm-egg fusion. In groups treated with recombinant mouse SLLP2 the number of sperm fused per egg was reduced to about 0.1 sperm fused per egg, at concentrations of 100 or 200 μg/ml recombinant mouse SLLP2, relative to BSA and PBS control treatments.

The subject of experiment [3] is mouse eggs. Description: Fertilization of mouse eggs with mouse sperm with recombinant mouse SLLP2. Here is the method:
Recombinant mouse SLLP2 at concentrations of 25, 50, 100, and 200 μg/ml was incubated with sperm and egg, and compared to BSA and PBS controls as described above. It can be seen that fertilization occurred at a rate of about 75% in the BSA and PBS controls groups. […] Also provided are comparisons of human SLLP2 to other mammalian sequences, and well as a comparison indicating the conservation of SLLP2 ortholog in dogs.

From US9803012B2, “Compositions and methods for regulating SAS1R” (UNIVERSITY OF VIRGINIA PATENT FOUNDATION, priority 2005, dated 2017) come the findings set out here.

B1: recombinant mouse SLLP2: purified recombinant mouse sperm lysozyme-like protein 2 (mature protein SEQ ID NO:16) (protein, listed as Mus musculus)
chain: KIYERCELAKKLEEAGLDGFKGYTVGDWLCVAHYESGFDTSFVDHNPDGSSEYGIFQLNSAWWCNNGITPTQNLCNIDCNDLLNRHILDDIICAKRVASSHKSMKAWDSWTQHCAGHDLSEWLKGCSVRLKTDSSYNNW
Consider B1, for which, in the experiment with mouse eggs [1] (mouse SLLP2), the “binding to Zona-free mouse eggs” value is recorded as “would bind to Zona-free mouse eggs”. Further, the “binding to Zona intact mouse eggs” value in the experiment on mouse eggs [1] (purified mouse SLLP2) is on record as “does indeed bind to mouse eggs”. The “number of sperm bound per egg” value in experiment [2] was “able to reduce the amount of binding occurring between sperm and egg”. Moreover, the “number of sperm fused per egg” value in the experiment on mouse sperm-egg fusion is “about 0.1 sperm fused per egg”. Moreover, the inhibition of fertilization result in the experiment on mouse eggs [3] (200 μg/ml) is given as “nearly totally inhibiting fertilization”; in the experiment with mouse eggs [3] (25, 50, 100 and 200 μg/ml, vs BSA and PBS controls), “inhibited fertilization in a dose-dependent fashion”.
